Results taken from patent US20030199022.
Numbering of substitutions follows the chain as printed.

Experiments:
Experiment in all cases: cell_activity
[1] = target: T1, ER3M (in cell) E203W,Q214A,H216G (Homo sapiens) (UniProt P03372); conditions: HepG2, 10 nM OHT
T1 sequence: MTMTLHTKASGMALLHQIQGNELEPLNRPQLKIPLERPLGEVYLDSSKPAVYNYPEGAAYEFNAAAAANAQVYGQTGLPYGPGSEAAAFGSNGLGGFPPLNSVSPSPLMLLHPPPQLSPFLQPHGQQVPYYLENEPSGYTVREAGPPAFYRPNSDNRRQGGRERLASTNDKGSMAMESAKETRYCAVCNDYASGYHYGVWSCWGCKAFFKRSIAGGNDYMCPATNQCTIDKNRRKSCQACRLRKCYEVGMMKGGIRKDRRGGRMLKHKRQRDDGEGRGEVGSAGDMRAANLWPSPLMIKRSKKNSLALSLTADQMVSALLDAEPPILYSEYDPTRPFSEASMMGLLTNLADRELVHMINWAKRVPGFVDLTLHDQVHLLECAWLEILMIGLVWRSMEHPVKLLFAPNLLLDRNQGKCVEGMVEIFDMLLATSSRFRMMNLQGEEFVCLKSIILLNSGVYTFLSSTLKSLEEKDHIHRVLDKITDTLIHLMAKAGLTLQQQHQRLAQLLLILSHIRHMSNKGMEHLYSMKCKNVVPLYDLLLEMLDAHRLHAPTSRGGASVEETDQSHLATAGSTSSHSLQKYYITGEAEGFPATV

[2] = target: T2, ER4.3 (in cell) E203W,Q214V,G215R,H216P,N217T (Homo sapiens) (UniProt P03372); conditions: HepG2, 10 nM OHT
T2 sequence: T1 sequence with A214V, G215R, G216P, N217T

[3] = target: T3, ERα wild type (in cell) (Homo sapiens) (UniProt P03372); conditions: HepG2, OHT
T3 sequence: T1 sequence with W203E, A214Q, G216H

GCTAGCGGGCCACTGTGGCCCTGACAACTAGTAAGTCGGGCCACTGTGGCCCGACGTACTATCTCGAGGGGCCACTGTGGCCCTAGAGCTGCAGGTATCGGGCCACTGTGGCCCTAGTTCATTAAAGCTTGGGCCACTGTGGCCCATCAAGATATCGAGATGGGCCACTGTGGCCCATCGACAGGAATTCACGGGCCACTGTGGCCCATCAAGATATCGAGATGGGCCACTGTGGCCCATCGACTCTAGA (double strand) [ATL8/PAL]
activity (fold induction) [1]: 117 | activity (fold induction) [2]: 172 | activity (fold induction) [3]: 52
